From patent publication US20200199241A1 (Chugai, published 2020)

Key:
Assay in all cases: SPR (Biacore);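 note: antibody variants captured on sensor chip, Fcγ receptor flowed over at 25 °C, bound receptor normalized to amount of captured antibody, expressed relative to reference antibody set as 100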
human FcγRIa = target: T1, human FcγRIa (human, UniProt P12314 16-292, limits assumed)
T1 construct: also called FcgRIa; FcγRI (CD64)

human FcγRIIa(R) = target: T2, human FcγRIIa(R) (human, UniProt P12318 36-217)
T2 construct: also called FcgRIIaR; FcγRIIa type R
T2 chain: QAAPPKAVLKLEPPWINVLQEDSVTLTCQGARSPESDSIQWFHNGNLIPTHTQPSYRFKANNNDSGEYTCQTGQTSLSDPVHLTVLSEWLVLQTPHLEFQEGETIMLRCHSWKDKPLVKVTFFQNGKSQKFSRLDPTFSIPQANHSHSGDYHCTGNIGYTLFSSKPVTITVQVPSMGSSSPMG

human FcγRIIa(H) = target: T3, human FcγRIIa(H) (human, UniProt P12318 36-217)
T3 construct: also called FcgRIIaH; FcγRIIa type H
T3 sequence: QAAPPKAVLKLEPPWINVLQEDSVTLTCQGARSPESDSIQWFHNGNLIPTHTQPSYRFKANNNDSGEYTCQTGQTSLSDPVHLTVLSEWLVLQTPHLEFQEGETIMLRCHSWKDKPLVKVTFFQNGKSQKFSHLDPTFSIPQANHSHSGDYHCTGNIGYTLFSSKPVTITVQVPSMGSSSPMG

human FcγRIIb = target: T4, human FcγRIIb (human, UniProt P31994 43-217, limits assumed)
T4 construct: also called FcgRIIb
T4 sequence: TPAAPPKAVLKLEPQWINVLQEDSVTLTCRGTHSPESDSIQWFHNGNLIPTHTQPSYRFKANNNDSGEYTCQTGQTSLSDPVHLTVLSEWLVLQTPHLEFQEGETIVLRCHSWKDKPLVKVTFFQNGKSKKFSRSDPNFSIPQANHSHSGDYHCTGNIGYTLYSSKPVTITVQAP

human FcγRIIIa(F) = target: T5, human FcγRIIIa(F) (human, UniProt P08637 17-208, limits assumed)
T5 construct: also called FcgRIIIaF; allotype F158
T5 sequence (P08637 other isoform, or with tags, fused parts or gaps limits assumed): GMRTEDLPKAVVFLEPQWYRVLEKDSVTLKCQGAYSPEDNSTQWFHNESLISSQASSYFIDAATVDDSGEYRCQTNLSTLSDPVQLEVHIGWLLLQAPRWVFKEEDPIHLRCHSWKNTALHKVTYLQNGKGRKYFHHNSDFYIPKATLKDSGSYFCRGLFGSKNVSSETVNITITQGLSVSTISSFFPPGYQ

T1 sequence (P12314 16-292 limits assumed): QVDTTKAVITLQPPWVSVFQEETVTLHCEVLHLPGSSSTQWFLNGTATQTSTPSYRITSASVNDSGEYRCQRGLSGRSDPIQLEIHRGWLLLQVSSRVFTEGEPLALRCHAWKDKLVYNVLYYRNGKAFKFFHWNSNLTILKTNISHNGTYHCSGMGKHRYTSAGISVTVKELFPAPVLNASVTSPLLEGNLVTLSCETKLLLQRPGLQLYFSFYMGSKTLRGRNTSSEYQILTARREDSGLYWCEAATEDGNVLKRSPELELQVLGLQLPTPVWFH

| Binder | relative binding activity (human FcγRIa) | relative binding activity (human FcγRIIa(R)) | relative binding activity (human FcγRIIa(H)) | relative binding activity (human FcγRIIb) | relative binding activity (human FcγRIIIa(F)) |
| --- | --- | --- | --- | --- | --- |
| GpH7-B3 variant L234W/GpL16-k0 (antibody, human IgG1, copies: 2 + 2) heavy: not shown light: DIVMTQSPLSLPVTPGEPASISCQASESLVHSNRNTYLHWYLQKPGQSPQLLIYKVSNRFSGVPDRFSGSGSGTDFTLKISRVEAEDVGVYYCSQNTHVPPTFGQGTKVEIE | 94 % of GpH7-B3/GpL16-k0 | 64 % of GpH7-B3/GpL16-k0 | 63 % of GpH7-B3/GpL16-k0 | 90 % of GpH7-B3/GpL16-k0 | 36 % of GpH7-B3/GpL16-k0 |
| GpH7-B3 variant L235D/GpL16-k0 (antibody, human IgG1, copies: 2 + 2) heavy: not shown light: DIVMTQSPLSLPVTPGEPASISCQASESLVHSNRNTYLHWYLQKPGQSPQLLIYKVSNRFSGVPDRFSGSGSGTDFTLKISRVEAEDVGVYYCSQNTHVPPTFGQGTKVEIE | 1 % of GpH7-B3/GpL16-k0 | 87 % of GpH7-B3/GpL16-k0 | 60 % of GpH7-B3/GpL16-k0 | 88 % of GpH7-B3/GpL16-k0 | 60 % of GpH7-B3/GpL16-k0 |
| GpH7-B3 variant L235S/GpL16-k0 (antibody, human IgG1, copies: 2 + 2) heavy: not shown light: DIVMTQSPLSLPVTPGEPASISCQASESLVHSNRNTYLHWYLQKPGQSPQLLIYKVSNRFSGVPDRFSGSGSGTDFTLKISRVEAEDVGVYYCSQNTHVPPTFGQGTKVEIE | 11 % of GpH7-B3/GpL16-k0 | 29 % of GpH7-B3/GpL16-k0 | 39 % of GpH7-B3/GpL16-k0 | 23 % of GpH7-B3/GpL16-k0 | 36 % of GpH7-B3/GpL16-k0 |
| GpH7-B3 variant L235A/GpL16-k0 (antibody, human IgG1, copies: 2 + 2) heavy: not shown light: DIVMTQSPLSLPVTPGEPASISCQASESLVHSNRNTYLHWYLQKPGQSPQLLIYKVSNRFSGVPDRFSGSGSGTDFTLKISRVEAEDVGVYYCSQNTHVPPTFGQGTKVEIE | 66 % of GpH7-B3/GpL16-k0 | 50 % of GpH7-B3/GpL16-k0 | 48 % of GpH7-B3/GpL16-k0 | 37 % of GpH7-B3/GpL16-k0 | 49 % of GpH7-B3/GpL16-k0 |
| GpH7-B3 variant L235N/GpL16-k0 (antibody, human IgG1, copies: 2 + 2) heavy: not shown light: DIVMTQSPLSLPVTPGEPASISCQASESLVHSNRNTYLHWYLQKPGQSPQLLIYKVSNRFSGVPDRFSGSGSGTDFTLKISRVEAEDVGVYYCSQNTHVPPTFGQGTKVEIE | 3 % of GpH7-B3/GpL16-k0 | 35 % of GpH7-B3/GpL16-k0 | 37 % of GpH7-B3/GpL16-k0 | 27 % of GpH7-B3/GpL16-k0 | 35 % of GpH7-B3/GpL16-k0 |
| GpH7-B3 variant L235R/GpL16-k0 (antibody, human IgG1, copies: 2 + 2) heavy: not shown light: DIVMTQSPLSLPVTPGEPASISCQASESLVHSNRNTYLHWYLQKPGQSPQLLIYKVSNRFSGVPDRFSGSGSGTDFTLKISRVEAEDVGVYYCSQNTHVPPTFGQGTKVEIE | 0 % of GpH7-B3/GpL16-k0 | -4 % of GpH7-B3/GpL16-k0 | 1 % of GpH7-B3/GpL16-k0 | -2 % of GpH7-B3/GpL16-k0 | 9 % of GpH7-B3/GpL16-k0 |
| GpH7-B3 variant L235P/GpL16-k0 (antibody, human IgG1, copies: 2 + 2) heavy: not shown light: DIVMTQSPLSLPVTPGEPASISCQASESLVHSNRNTYLHWYLQKPGQSPQLLIYKVSNRFSGVPDRFSGSGSGTDFTLKISRVEAEDVGVYYCSQNTHVPPTFGQGTKVEIE | 3 % of GpH7-B3/GpL16-k0 | 38 % of GpH7-B3/GpL16-k0 | 33 % of GpH7-B3/GpL16-k0 | 32 % of GpH7-B3/GpL16-k0 | 47 % of GpH7-B3/GpL16-k0 |
| GpH7-B3 variant L235G/GpL16-k0 (antibody, human IgG1, copies: 2 + 2) heavy: not shown light: DIVMTQSPLSLPVTPGEPASISCQASESLVHSNRNTYLHWYLQKPGQSPQLLIYKVSNRFSGVPDRFSGSGSGTDFTLKISRVEAEDVGVYYCSQNTHVPPTFGQGTKVEIE | 16 % of GpH7-B3/GpL16-k0 | 6 % of GpH7-B3/GpL16-k0 | 7 % of GpH7-B3/GpL16-k0 | 3 % of GpH7-B3/GpL16-k0 | 13 % of GpH7-B3/GpL16-k0 |
